Experimental data from patent US20190048049A1 (CERENIS THERAPEUTICS, published 2019).
Ends that are not written are not given here.

Molecular target: T1, ApoA-I (human, UniProt P02647 25-267)
T1 construct: Stands in Cargomers as a monomer or multimer (1-8 molecules); also called apolipoprotein A-I; ApoA1
Assay: size exclusion chromatography of ApoA-I:M30 Cargomers, with increased temperature

T1 sequence (P02647 25-267 limits assumed): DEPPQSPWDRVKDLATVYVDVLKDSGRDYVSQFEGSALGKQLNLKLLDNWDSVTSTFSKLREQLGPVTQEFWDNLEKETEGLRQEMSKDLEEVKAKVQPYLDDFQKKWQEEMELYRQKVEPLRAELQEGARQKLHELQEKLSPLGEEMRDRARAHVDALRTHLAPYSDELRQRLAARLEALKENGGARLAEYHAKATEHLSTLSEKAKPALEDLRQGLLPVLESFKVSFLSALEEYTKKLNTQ

binding result: binds
B1: M30 tumor antigen peptide coupled to PDP-PE lipid (peptide)
peptide: CSSVDWENVSPELNSTDQ
modifications: also: reacted with PDP-PE lipid, residue of attachment not given here
notes: Lipid-anchored peptide cargo of ApoA-I Cargomers (ApoA-I:TA molar ratios 1:2 and 1:4); also called TA peptide M30
